Results as given in patent US20020098189A1 (AstraZeneca / MedImmune, published 2002).
Numbering of substitutions follows the chain as printed.

B1: Clone 24 (IgG) (antibody, V domains shown)
VH: QVTLRESGPALVKPTQTLTLTCTFSGFSLSTAGMSVGWIRQPPGKALEWLADIWWDGKKHYNPSLKDRLTISKDTSKNQVVLKVTNMDPADTATYYCARDMIFNWYFDVWGQGTTVTVSS
VL: DIQMTQSPSTLSASVGDRVTITCSLSSRVGYMHWYQQKPGKAPKLLIYDTFKLSSGVPSRFSGSGSGTEFTLTISSLQPDDFATYYCFQGSGYPFTFGGGTKVEIKR
B2: Clone 28 (Fab) (Fab, V domains shown)
VH: B1 VH with G57D, H60S
VL: DIQMTQSPSTLSASVGDRVTITCSPSSRVGYMHWYQQKPGKAPKLLIYDTRYQSSGVPSRFSGSGSGTEFTLTISSLQPDDFATYYCFQGSGYPFTFGGGTKVEIK
B3: Clone 29 (Fab) (Fab, V domains shown)
VH: B1 VH with G57D, W105F
VL: B2 VL with P25A, R51F, Y52F, Q53L, S54D
B4: Clone 21 (IgG) (antibody, V domains shown)
VH: B1 VH with A32P, G57D, W105F
VL: B1 VL with K52Y
B5: Clone 18 (IgG) (antibody, V domains shown)
VH: B1 VH with H60S, W105F
VL: B1 VL with S24L, L25P, F51M, K52Y, L53Q
B6: Clone 19 (IgG) (antibody, V domains shown)
VH: B1 VH with G57D, W105F
VL: B1 VL with L25A, K52F, S54D
B7: Reference clone (Fab fragment with the sequences of FIG. 2 and the CDRs of Table 1) (Fab, V domains shown)
VH: B1 VH with A32S, G57D, H60D, D67S, D100S, F103T
VL: B2 VL with P25A, R28S, R51S, Y52K, Q53L, S54A
notes: also called basic structure
B8: Clone 20 (IgG) (antibody, V domains shown)
VH: B1 VH with G57D, H60S
VL: B1 VL with L25P, F51R, K52Y, L53Q
B9: Clone 22 (IgG) (antibody, V domains shown)
VH: B1 VH with A32P, G57D, W105F
VL: B1 VL with F51R, K52G, S54P
B10: Clone 25 (IgG) (antibody, V domains shown)
VH: B1 VH with H60D, W105F
VL: B1 VL with L25A
B11: Clone 23 (IgG) (antibody, V domains shown)
VH: B1 VH with A32P
VL: B1 VL with L25P, F51M, K52R, S54A
B12: Clone 15 (Fab) (Fab, V domains shown)
VH: B1 VH with H60S, W105F
VL: B2 VL with P25L, R51M
B13: Clone 26 (IgG) (antibody, V domains shown)
VH: B1 VH with H60S, W105F
VL: B1 VL with F51M, K52Y, L53Q
B14: Clone 27 (Fab) (Fab, V domains shown)
VH: B1 VH with H60S, D67S, W105F
VL: B2 VL with S24L, R51M
B15: Clone 6 (Fab) (Fab, V domains shown)
VH: B1 VH with G57D, H60D, D67S, D100S, F103T, W105F
VL: B2 VL with P25A, R28S, R51F, Y52K, Q53L, S54A, G92F
B16: Clone 14 (Fab) (Fab, V domains shown)
VH: B1 VH with G57D
VL: B2 VL with R51Y, Y52R, Q53H
B17: Clone 2 (Fab) (Fab, V domains shown)
VH: B1 VH with G57D, H60D, D67S
VL: B2 VL with P25A, R28S, R51F, Y52K, Q53L, S54A
B18: Clone 9 (Fab) (Fab, V domains shown)
VH: B1 VH with A32P, G57D, W105F
VL: B2 VL with P25L, R51F, Q53L
B19: Clone 13 (Fab) (Fab, V domains shown)
VH: B1 VH with H60D, W105F
VL: B2 VL with P25A, R51F, Y52K, Q53L
B20: Clone 4 (Fab) (Fab, V domains shown)
VH: B1 VH with G57D, H60D, D67S
VL: B2 VL with P25A, R28S, Q53L
notes: also called H3-3F4
B21: Clone 3 (Fab) (Fab, V domains shown)
VH: B1 VH with G57D, H60D, D67S
VL: B2 VL with P25A, R28S, R51Y, Y52K, S54T
B22: Clone 8 (Fab) (Fab, V domains shown)
VH: B1 VH with G57D, H60D, D67S, F103T, W105F
VL: B2 VL with P25A, R28S, R51F, Y52R, Q53L, S54A
B23: Clone 5 (Fab) (Fab, V domains shown)
VH: B1 VH with G57D, H60D, D67S, F103T, W105F
VL: B2 VL with P25A, R28S, R51F, Y52K, Q53L, S54A
B24: Clone 11 (Fab) (Fab, V domains shown)
VH: B1 VH with A32P, W105F
VL: B2 VL with R51M, Y52R, Q53L, S54A
B25: Clone 7 (Fab) (Fab, V domains shown)
VH: B1 VH with G57D, H60D, D67S, F103T, W105F
VL: B2 VL with P25A, R51F, Y52K, Q53L, S54A
B26: Clone 12 (Fab) (Fab, V domains shown)
VH: B1 VH with W105F
VL: B2 VL with P25L, R51F, Y52K, Q53L
B27: Clone 17 (whole monoclonal antibody) (antibody, V domains shown)
VH: B1 VH with G57D, H60D, D67S, D100S, F103T, W105F, Q112A
VL: B2 VL with P25A, R28S, R51F, Y52K, Q53L, S54A, G92F, V103L
B28: Clone 1 (Fab) (Fab, V domains shown)
VH: B1 VH with G57D, H60D, D67S, F103T, W105F
VL: B2 VL with P25A, R28S, R51F, Y52K, Q53L, S54T
B29: MEDI-493 (clone 16), IgG1 (COR)/kappa (K102) humanized MAb (antibody, V domains shown)
VH: B1 VH with A32S, G57D, H60D, D67S, D100S, F103T, Q112A
VL: B2 VL with S24K, P25C, S26Q, S27L, R28S, R51S, Y52K, Q53L, S54A, V103L
B30: Clone 10 (Fab) (Fab, V domains shown)
VH: B1 VH with A32P, W105F
VL: B2 VL with P25L, Y52G, Q53L, S54P

Tests used:
[1] = substrate: F protein of respiratory syncytial virus (RSV-Long strain), on infectious virus (respiratory syncytial virus (RSV-Long strain)) (UniProt P12568); test: cell-based or functional assay
F protein of respiratory syncytial virus (RSV-Long strain), on infectious virus (respiratory syncytial virus (RSV-Long strain)), sequence (P12568 26-574): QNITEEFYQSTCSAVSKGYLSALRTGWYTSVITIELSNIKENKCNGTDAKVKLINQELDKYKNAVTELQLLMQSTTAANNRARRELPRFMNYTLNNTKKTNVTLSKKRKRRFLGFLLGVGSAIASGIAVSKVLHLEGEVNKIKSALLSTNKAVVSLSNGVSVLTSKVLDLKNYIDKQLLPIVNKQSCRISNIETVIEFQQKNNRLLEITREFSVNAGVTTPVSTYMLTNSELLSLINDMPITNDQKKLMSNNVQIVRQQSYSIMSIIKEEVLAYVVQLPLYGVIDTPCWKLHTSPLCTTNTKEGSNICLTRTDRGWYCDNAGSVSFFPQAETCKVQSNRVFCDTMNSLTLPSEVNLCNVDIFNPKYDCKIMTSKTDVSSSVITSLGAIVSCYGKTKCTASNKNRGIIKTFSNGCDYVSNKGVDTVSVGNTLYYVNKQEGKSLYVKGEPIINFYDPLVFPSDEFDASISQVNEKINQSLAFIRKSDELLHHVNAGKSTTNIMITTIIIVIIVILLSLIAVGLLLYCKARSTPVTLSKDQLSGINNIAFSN

[2] = target: T1, F protein of respiratory syncytial virus (RSV-Long strain), on infectious virus (respiratory syncytial virus (RSV-Long …, UniProt P12568 26-574)); test: cell-based or functional assay
[3] = target: T2, C-terminal truncated RSV F protein, secreted from recombinant baculovirus-infected cells (respiratory syncytial virus (strain not …, UniProt P03420 26-526)); test: SPR (BIAcore), F protein immobilized, Fab injected
T2 construct: also called F antigen of RSV
T2 sequence (P03420 26-526): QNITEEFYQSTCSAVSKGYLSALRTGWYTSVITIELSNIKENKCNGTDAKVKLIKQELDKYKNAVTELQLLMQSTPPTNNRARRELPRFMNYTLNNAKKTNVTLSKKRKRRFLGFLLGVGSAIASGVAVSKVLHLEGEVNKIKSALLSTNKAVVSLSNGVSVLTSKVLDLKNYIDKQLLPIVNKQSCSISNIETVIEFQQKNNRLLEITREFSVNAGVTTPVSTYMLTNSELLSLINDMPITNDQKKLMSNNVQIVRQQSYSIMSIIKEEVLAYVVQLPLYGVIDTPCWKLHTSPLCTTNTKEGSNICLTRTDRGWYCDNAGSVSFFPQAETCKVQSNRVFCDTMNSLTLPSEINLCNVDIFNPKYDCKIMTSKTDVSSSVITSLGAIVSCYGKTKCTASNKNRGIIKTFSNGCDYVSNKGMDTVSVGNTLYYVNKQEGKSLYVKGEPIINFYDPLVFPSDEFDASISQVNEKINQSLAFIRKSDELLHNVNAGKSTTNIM
Method: A typical kinetic study involved the injection of 35 ml of Mab at varying concentrations (25-300 nM) in PBS buffer containing 0.05% Tween-20 (PBS/Tween). The flow rate was maintained at 5 ml/min, giving a 7 min binding phase. Following the injection of Mab, the flow was exchanged with PBS/Tween buffer for 30 min for determining the rate of dissociation. The sensor chip was regenerated between cycles with a 2 min pulse of 10 mM HCI.
More specifically, for measurement of kassoc (or kₒₙ), F protein was directly immobilized by the EDC/NHS method (EDC=N-ethyl-N′-[3-diethylaminopropyl)-carbodiimide). Briefly, 4 μg/ml of F protein in 10 mM NaOAc, pH 4.0 was prepared and about a 30 μl injection gives about 500 RU (response units) of immobilized F protein under the above referenced conditions. The blank flow cell (VnR immobilized-CM dextran surface) was subtracted for kinetic analysis. The column could be regenerated using 100 mM HCI (with 72 seconds of contact time being required for full regeneration). […] The dissociation phase was analyzed from 230 seconds (30 seconds after start of the dissociation phase) to 900 seconds. Kinetics were analyzed by 1:1 Langmuir fitting (global fitting). Measurements were done in HBS-EP buffer (10 mM HEPES, pH 7.4, 150 mM NaCl, 3 mM EDTA, 0.005% (v/v) Surfactant P20.
For measuring k_{off (or k}dissoc) the following conditions were employed. Briefly, 4100 RU of F protein were immobilized (as above) with CM-dextran used as the blank. Here, 3000 RU of Fab was bound (with dissociated Fab high enough to offset machine fluctuation). […] The dissociation phase was 6-15 hours at a flow rate of 5 μl/min.

[4] = target: T1, F protein of respiratory syncytial …; test: cell-based or functional assay; remark: listed apart in the source
[5] = target: T2, C-terminal truncated RSV F protein, …; test: SPR (BIAcore), F protein immobilized, whole antibody injected

| Binder | Mean IC50 µg/ml, RSV microneutralization [1] [µg/mL] | Mean IC50 (Control) µg/ml, RSV microneutralization [1] [µg/mL] | EC50 (nM), RSV microneutralization [2] [nM] | koff [3] [s⁻¹] | kon [3] [M⁻¹ s⁻¹] | other results |
| --- | --- | --- | --- | --- | --- | --- |
| B1 | 0.0625 | 0.0645 |  |  |  |  |
| B2 | 0.177 | 0.157 |  |  |  |  |
| B3 | 0.0414 | 0.0411 |  |  |  |  |
| B4 | 0.0231 | 0.0223 |  |  |  |  |
| B5 | 0.0342 | 0.0354 |  |  |  |  |
| B6 | 0.0171 | 0.0154 |  |  |  |  |
| B7 |  |  | 3.52 | 0.00065 | 185000 |  |
| B8 | 0.0337 | 0.0383 |  |  |  |  |
| B9 | 0.0242 | 0.0235 |  |  |  |  |
| B10 | 0.0357 | 0.0354 |  |  |  |  |
| B11 | 0.0217 | 0.0289 |  |  |  |  |
| B12 |  |  | 0.56 | 0.00028 | 781000 | Mean IC50 µg/ml, RSV microneutralization [4]: 0.0264 µg/mL; Mean IC50 (Control) µg/ml, RSV microneutralization [4]: 0.0258 µg/mL |
| B13 | 0.0376 | 0.0375 |  |  |  |  |
| B14 | 0.0179 | 0.0171 |  |  |  |  |
| B15 |  |  | 2.88 | 0.00032 | 185000 |  |
| B16 |  |  | 2.23 | 0.00025 | 735000 | Mean IC50 µg/ml, RSV microneutralization [4]: 0.12 µg/mL; Mean IC50 (Control) µg/ml, RSV microneutralization [4]: 0.102 µg/mL |
| B17 |  |  | 5.05 | 0.000422 | 531000 |  |
| B18 |  |  | 0.29 | 0.000282 | 663000 | Mean IC50 µg/ml, RSV microneutralization [4]: 0.0407 µg/mL; Mean IC50 (Control) µg/ml, RSV microneutralization [4]: 0.0326 µg/mL |
| B19 |  |  | 0.81 | 0.00023 | 743000 | Mean IC50 µg/ml, RSV microneutralization [4]: 0.0287 µg/mL; Mean IC50 (Control) µg/ml, RSV microneutralization [4]: 0.031 µg/mL |
| B20 |  |  | 3.55 | 0.000462 | 757000 |  |
| B21 |  |  | 4.7 | 0.000422 | 605000 |  |
| B22 |  |  | 2.67 | 0.000273 | 375000 |  |
| B23 |  |  | 2.61 | 0.000306 | 416000 |  |
| B24 |  |  | 20.9 | 0.000717 | 571000 | Mean IC50 µg/ml, RSV microneutralization [4]: > 1 µg/mL; Mean IC50 (Control) µg/ml, RSV microneutralization [4]: > 1 µg/mL |
| B25 |  |  | 1.59 | 0.000251 | 370000 |  |
| B26 |  |  | 3.24 | 0.000453 | 790000 | Mean IC50 µg/ml, RSV microneutralization [4]: 0.157 µg/mL; Mean IC50 (Control) µg/ml, RSV microneutralization [4]: 0.125 µg/mL |
| B27 |  |  | 2.7 |  |  | koff [5]: 0.000249 s⁻¹; kon [5]: 109000 M⁻¹ s⁻¹ |
| B28 |  |  | 2.26 | 0.000326 | 365000 |  |
| B29 |  |  | 6.12 |  |  | Mean IC50 µg/ml, RSV microneutralization [4]: 0.453 µg/mL; Mean IC50 (Control) µg/ml, RSV microneutralization [4]: 0.535 µg/mL; koff [5]: 0.000735 s⁻¹; kon [5]: 204000 M⁻¹ s⁻¹ |
| B30 |  |  | 1.06 | 0.000299 | 527000 | Mean IC50 µg/ml, RSV microneutralization [4]: 0.0464 µg/mL; Mean IC50 (Control) µg/ml, RSV microneutralization [4]: 0.0351 µg/mL |
